Values quoted from earlier work, collected in patent US20170136096A1, “Insulin-Containing Prolonged-Action Preparation” (OBSCHESTVO S OGRANCHENNOJ OTVETCTVENNOSTU "BIOSABTEK", priority 2014, published 2017).

Details: administered under the skin, injection solution pH 4

glargine
duration of flat time-concentration profile: ≤ 24 h
